Each block holds one binder with its values, some of them ahead of it. Numbered stars: 1 amine (or outer) side, 2 acyl side, 3 side chain; on linkers, the order of the positions; unused ones are H or OH. Bridge positions count the residues as written; N and C are the ends. Side chains are listed from the residue outwards. Ends that are not written are not given here. * marks the point of attachment. C20 diacid = O=C(O)CCCCCCCCCCCCCCCCCCC(=O)*; γGlu = O=C(O)[C@H](CCC(=O)[*:2])N[*:1]; AEEA = NCCOCCOCC(=O)O
Experiments:
[1] = target: T1, human calcitonin receptor (human, UniProt P30988 25-474); assay: SPA competition binding, membranes with human calcitonin receptor, displacement of 125I-calcitonin (Assay VII)
T1 construct: whole, on cells; also called hCTR; hCT
T1 sequence (looked up): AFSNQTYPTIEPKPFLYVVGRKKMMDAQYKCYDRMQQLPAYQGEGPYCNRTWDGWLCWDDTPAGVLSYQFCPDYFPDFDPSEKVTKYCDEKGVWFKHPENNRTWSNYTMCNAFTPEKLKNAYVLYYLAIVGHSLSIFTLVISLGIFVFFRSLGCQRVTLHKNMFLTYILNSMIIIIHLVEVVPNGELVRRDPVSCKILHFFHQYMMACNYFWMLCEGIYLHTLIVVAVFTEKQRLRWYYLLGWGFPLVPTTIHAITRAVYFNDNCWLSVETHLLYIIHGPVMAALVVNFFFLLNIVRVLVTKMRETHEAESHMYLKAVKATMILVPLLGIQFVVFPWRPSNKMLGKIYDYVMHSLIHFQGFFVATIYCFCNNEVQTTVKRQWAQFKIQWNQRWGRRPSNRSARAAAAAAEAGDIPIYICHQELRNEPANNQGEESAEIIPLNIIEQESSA
Method in brief: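 BHK hCTR membranes 35 ng/μL + SPA beads 0.05 mg/well; buffer 50 mM Hepes pH 7.4, 1 mM CaCl2, 5 mM MgCl₂, 0.1% OA, 0.02% Tween20. 120 min, 25° C., shaking. Scintillation count; IC50 by one-site binding competition.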

[2] = target: T1, human calcitonin receptor; assay: ratio of IC50 at hCTR to IC50 at the human amylin receptor (reference)
Method in brief: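 Membranes (35 ng/μL final) + SPA beads, 50 mM Hepes pH 7.4 buffer with 1 mM CaCl2, 5 mM MgCl₂, 0.1% OA, 0.02% Tween20; 120 min, 25° C, shaking; centrifuged, counted; IC₅₀ by one-site binding competition.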

IC50 [1]: 3.26 nM
Ratio hCT/hAmylin binding [2]: 16
B1: N^α1-[(4S)-4-carboxy-4-(19-carboxynonadecanoylamino)butanoyl]-[Glu14,Arg17,Pro21,Pro27,Pro31]-h-amylin (peptide)
peptide: {C20 diacid-γGlu}-KCNTATCATQRLAEFLRHSSPNFGAIPSSTPVGSNTY-NH2
modifications: disulfide 2-7
SMILES: CC[C@H](C)[C@H](NC(=O)[C@H](C)NC(=O)CNC(=O)[C@H](Cc1ccccc1)NC(=O)[C@H](CC(N)=O)NC(=O)[C@@H]1CCCN1C(=O)[C@H](CO)NC(=O)[C@H](CO)NC(=O)[C@H](Cc1c[nH]cn1)NC(=O)[C@H](CCCNC(=N)N)NC(=O)[C@H](CC(C)C)NC(=O)[C@H](Cc1ccccc1)NC(=O)[C@H](CCC(=O)O)NC(=O)[C@H](C)NC(=O)[C@H](CC(C)C)NC(=O)[C@H](CCCNC(=N)N)NC(=O)[C@H](CCC(N)=O)NC(=O)[C@@H](NC(=O)[C@H](C)NC(=O)[C@@H]1CSSC[C@H](NC(=O)[C@H](CCCCN)NC(=O)CC[C@H](NC(=O)CCCCCCCCCCCCCCCCCCC(=O)O)C(=O)O)C(=O)N[C@@H](CC(N)=O)C(=O)N[C@@H]([C@@H](C)O)C(=O)N[C@@H](C)C(=O)N[C@@H]([C@@H](C)O)C(=O)N1)[C@@H](C)O)C(=O)N1CCC[C@H]1C(=O)N[C@@H](CO)C(=O)N[C@@H](CO)C(=O)N[C@H](C(=O)N1CCC[C@H]1C(=O)N[C@H](C(=O)NCC(=O)N[C@@H](CO)C(=O)N[C@@H](CC(N)=O)C(=O)N[C@H](C(=O)N[C@@H](Cc1ccc(O)cc1)C(N)=O)[C@@H](C)O)C(C)C)[C@@H](C)O
notes: also called compound 31

IC50 [1]: 3.61 nM
Ratio hCT/hAmylin binding [2]: 3.9
Binder: {C20 diacid-γGlu}-KCNTATCATQRLAEFLRHSSPNFGAILPSTNVGSETY-NH2 (disulfide 2-7, also called compound 33)

IC50 [1]: 9.73 nM
Ratio hCT/hAmylin binding [2]: 12.3
B2: N^α1N^α1-[(4S)-4-carboxy-4-(19-carboxynonadecanoylamino)butanoyl]-[Glu14,Arg17,Pro21,Pro27,Glu35]-h-amylin (peptide)
peptide: {C20 diacid-γGlu}-KCNTATCATQRLAEFLRHSSPNFGAIPSSTNVGSETY-NH2
modifications: disulfide 2-7
SMILES: CC[C@H](C)[C@H](NC(=O)[C@H](C)NC(=O)CNC(=O)[C@H](Cc1ccccc1)NC(=O)[C@H](CC(N)=O)NC(=O)[C@@H]1CCCN1C(=O)[C@H](CO)NC(=O)[C@H](CO)NC(=O)[C@H](Cc1c[nH]cn1)NC(=O)[C@H](CCCNC(=N)N)NC(=O)[C@H](CC(C)C)NC(=O)[C@H](Cc1ccccc1)NC(=O)[C@H](CCC(=O)O)NC(=O)[C@H](C)NC(=O)[C@H](CC(C)C)NC(=O)[C@H](CCCNC(=N)N)NC(=O)[C@H](CCC(N)=O)NC(=O)[C@@H](NC(=O)[C@H](C)NC(=O)[C@@H]1CSSC[C@H](NC(=O)[C@H](CCCCN)NC(=O)CC[C@H](NC(=O)CCCCCCCCCCCCCCCCCCC(=O)O)C(=O)O)C(=O)N[C@@H](CC(N)=O)C(=O)N[C@@H]([C@@H](C)O)C(=O)N[C@@H](C)C(=O)N[C@@H]([C@@H](C)O)C(=O)N1)[C@@H](C)O)C(=O)N1CCC[C@H]1C(=O)N[C@@H](CO)C(=O)N[C@@H](CO)C(=O)N[C@H](C(=O)N[C@@H](CC(N)=O)C(=O)N[C@H](C(=O)NCC(=O)N[C@@H](CO)C(=O)N[C@@H](CCC(=O)O)C(=O)N[C@H](C(=O)N[C@@H](Cc1ccc(O)cc1)C(N)=O)[C@@H](C)O)C(C)C)[C@@H](C)O
notes: also called compound 22

IC50 [1]: 21.6 nM
Ratio hCT/hAmylin binding [2]: 23.6
B3: N^α1-[(4S)-4-carboxy-4-(19-carboxynonadecanoylamino)butanoyl]-[His14,Arg17,Pro21,Pro27,Glu35]-h-amylin (peptide)
peptide: {C20 diacid-γGlu}-KCNTATCATQRLAHFLRHSSPNFGAIPSSTNVGSETY-NH2
modifications: disulfide 2-7
SMILES: CC[C@H](C)[C@H](NC(=O)[C@H](C)NC(=O)CNC(=O)[C@H](Cc1ccccc1)NC(=O)[C@H](CC(N)=O)NC(=O)[C@@H]1CCCN1C(=O)[C@H](CO)NC(=O)[C@H](CO)NC(=O)[C@H](Cc1c[nH]cn1)NC(=O)[C@H](CCCNC(=N)N)NC(=O)[C@H](CC(C)C)NC(=O)[C@H](Cc1ccccc1)NC(=O)[C@H](Cc1c[nH]cn1)NC(=O)[C@H](C)NC(=O)[C@H](CC(C)C)NC(=O)[C@H](CCCNC(=N)N)NC(=O)[C@H](CCC(N)=O)NC(=O)[C@@H](NC(=O)[C@H](C)NC(=O)[C@@H]1CSSC[C@H](NC(=O)[C@H](CCCCN)NC(=O)CC[C@H](NC(=O)CCCCCCCCCCCCCCCCCCC(=O)O)C(=O)O)C(=O)N[C@@H](CC(N)=O)C(=O)N[C@@H]([C@@H](C)O)C(=O)N[C@@H](C)C(=O)N[C@@H]([C@@H](C)O)C(=O)N1)[C@@H](C)O)C(=O)N1CCC[C@H]1C(=O)N[C@@H](CO)C(=O)N[C@@H](CO)C(=O)N[C@H](C(=O)N[C@@H](CC(N)=O)C(=O)N[C@H](C(=O)NCC(=O)N[C@@H](CO)C(=O)N[C@@H](CCC(=O)O)C(=O)N[C@H](C(=O)N[C@@H](Cc1ccc(O)cc1)C(N)=O)[C@@H](C)O)C(C)C)[C@@H](C)O
notes: also called compound 30

IC50 [1]: 2.64 nM
Ratio hCT/hAmylin binding [2]: 34.7
B4: N^ε1-[2-[2-[2-(19-carboxynonadecanoylamino)ethoxy]ethoxy]acetyl]-[Arg17,Pro21,Pro27]-h-amylin (peptide)
peptide: K([AEEA-C20 diacid])CNTATCATQRLANFLRHSSPNFGAIPSSTNVGSNTY-NH2
modifications: disulfide 2-7; N-terminus assumed
SMILES: CC[C@H](C)[C@H](NC(=O)[C@H](C)NC(=O)CNC(=O)[C@H](Cc1ccccc1)NC(=O)[C@H](CC(N)=O)NC(=O)[C@@H]1CCCN1C(=O)[C@H](CO)NC(=O)[C@H](CO)NC(=O)[C@H](Cc1c[nH]cn1)NC(=O)[C@H](CCCNC(=N)N)NC(=O)[C@H](CC(C)C)NC(=O)[C@H](Cc1ccccc1)NC(=O)[C@H](CC(N)=O)NC(=O)[C@H](C)NC(=O)[C@H](CC(C)C)NC(=O)[C@H](CCCNC(=N)N)NC(=O)[C@H](CCC(N)=O)NC(=O)[C@@H](NC(=O)[C@H](C)NC(=O)[C@@H]1CSSC[C@H](NC(=O)[C@@H](N)CCCCNC(=O)COCCOCCNC(=O)CCCCCCCCCCCCCCCCCCC(=O)O)C(=O)N[C@@H](CC(N)=O)C(=O)N[C@@H]([C@@H](C)O)C(=O)N[C@@H](C)C(=O)N[C@@H]([C@@H](C)O)C(=O)N1)[C@@H](C)O)C(=O)N1CCC[C@H]1C(=O)N[C@@H](CO)C(=O)N[C@@H](CO)C(=O)N[C@H](C(=O)N[C@@H](CC(N)=O)C(=O)N[C@H](C(=O)NCC(=O)N[C@@H](CO)C(=O)N[C@@H](CC(N)=O)C(=O)N[C@H](C(=O)N[C@@H](Cc1ccc(O)cc1)C(N)=O)[C@@H](C)O)C(C)C)[C@@H](C)O
notes: also called compound 43

IC50 [1]: 0.432 nM
Ratio hCT/hAmylin binding [2]: 2.2
B5: N^α1-[(4S)-4-carboxy-4-[[(4S)-4-carboxy-4-(19-carboxynonadecanoylamino)butanoyl]amino]butanoyl]-[Glu14,Arg17,Pro21,Pro27,Pro37]-h-amylin (peptide)
peptide: {C20 diacid-γGlu-γGlu}-KCNTATCATQRLAEFLRHSSPNFGAIPSSTNVGSNTP-NH2
modifications: disulfide 2-7
SMILES: CC[C@H](C)[C@H](NC(=O)[C@H](C)NC(=O)CNC(=O)[C@H](Cc1ccccc1)NC(=O)[C@H](CC(N)=O)NC(=O)[C@@H]1CCCN1C(=O)[C@H](CO)NC(=O)[C@H](CO)NC(=O)[C@H](Cc1c[nH]cn1)NC(=O)[C@H](CCCNC(=N)N)NC(=O)[C@H](CC(C)C)NC(=O)[C@H](Cc1ccccc1)NC(=O)[C@H](CCC(=O)O)NC(=O)[C@H](C)NC(=O)[C@H](CC(C)C)NC(=O)[C@H](CCCNC(=N)N)NC(=O)[C@H](CCC(N)=O)NC(=O)[C@@H](NC(=O)[C@H](C)NC(=O)[C@@H]1CSSC[C@H](NC(=O)[C@H](CCCCN)NC(=O)CC[C@H](NC(=O)CC[C@H](NC(=O)CCCCCCCCCCCCCCCCCCC(=O)O)C(=O)O)C(=O)O)C(=O)N[C@@H](CC(N)=O)C(=O)N[C@@H]([C@@H](C)O)C(=O)N[C@@H](C)C(=O)N[C@@H]([C@@H](C)O)C(=O)N1)[C@@H](C)O)C(=O)N1CCC[C@H]1C(=O)N[C@@H](CO)C(=O)N[C@@H](CO)C(=O)N[C@H](C(=O)N[C@@H](CC(N)=O)C(=O)N[C@H](C(=O)NCC(=O)N[C@@H](CO)C(=O)N[C@@H](CC(N)=O)C(=O)N[C@H](C(=O)N1CCC[C@H]1C(N)=O)[C@@H](C)O)C(C)C)[C@@H](C)O
notes: also called compound 14

IC50 [1]: 0.038 nM
Ratio hCT/hAmylin binding [2]: 0.5
B6: N^α1-[(4S)-4-carboxy-4-(19-carboxynonadecanoylamino)butanoyl]-[Glu14,Arg17,Pro21,Pro27,Pro37]-h-amylin (peptide)
peptide: {C20 diacid-γGlu}-KCNTATCATQRLAEFLRHSSPNFGAIPSSTNVGSNTP-NH2
modifications: disulfide 2-7
SMILES: CC[C@H](C)[C@H](NC(=O)[C@H](C)NC(=O)CNC(=O)[C@H](Cc1ccccc1)NC(=O)[C@H](CC(N)=O)NC(=O)[C@@H]1CCCN1C(=O)[C@H](CO)NC(=O)[C@H](CO)NC(=O)[C@H](Cc1c[nH]cn1)NC(=O)[C@H](CCCNC(=N)N)NC(=O)[C@H](CC(C)C)NC(=O)[C@H](Cc1ccccc1)NC(=O)[C@H](CCC(=O)O)NC(=O)[C@H](C)NC(=O)[C@H](CC(C)C)NC(=O)[C@H](CCCNC(=N)N)NC(=O)[C@H](CCC(N)=O)NC(=O)[C@@H](NC(=O)[C@H](C)NC(=O)[C@@H]1CSSC[C@H](NC(=O)[C@H](CCCCN)NC(=O)CC[C@H](NC(=O)CCCCCCCCCCCCCCCCCCC(=O)O)C(=O)O)C(=O)N[C@@H](CC(N)=O)C(=O)N[C@@H]([C@@H](C)O)C(=O)N[C@@H](C)C(=O)N[C@@H]([C@@H](C)O)C(=O)N1)[C@@H](C)O)C(=O)N1CCC[C@H]1C(=O)N[C@@H](CO)C(=O)N[C@@H](CO)C(=O)N[C@H](C(=O)N[C@@H](CC(N)=O)C(=O)N[C@H](C(=O)NCC(=O)N[C@@H](CO)C(=O)N[C@@H](CC(N)=O)C(=O)N[C@H](C(=O)N1CCC[C@H]1C(N)=O)[C@@H](C)O)C(C)C)[C@@H](C)O
notes: also called compound 8

Source: US20140087995A1 (published 2014)
